Measured values taken from the RNAGym collection of RNA variant scans (doi:10.7554/elife.80360).

B1: CPEB3 Ribozyme (parent)
chain: GGGGGCCACAGCAGAAGCGUUCACGUCGCGGCCCCUGUCAGAUUCUGGUGAAUCUGCGAAUUCUGCUGU

Variants of: B1
Experiment: self-cleavage, relative activity (ratio to wild type); higher = more cleavage; co-transcriptional

Q: Which self-cleavage does the source give for A52C C63A here?
A: 0.795

Q: For A51C G56C, which self-cleavage is on record?
A: 0.57

Q: With A52C U67C as the variant, how does the self-cleavage read?
A: 1

Q: For A52C U67G, which self-cleavage is on record?
A: 1

Q: For A51U A52U, which self-cleavage is on record?
A: 0.96

Q: Which self-cleavage does the source give for U53G G68C here?
A: 0.882

Q: Which self-cleavage does the source give for A51U U53A here?
A: 0.918

Q: For A51G U55A, which self-cleavage is on record?
A: 0.87

Q: Which self-cleavage does the source give for A51U C54A here?
A: 0.633

Q: Which self-cleavage does the source give for U53G A59U here?
A: 0.576

Q: Which self-cleavage does the source give for A52U C66G here?
A: 0.695

Q: Which self-cleavage does the source give for A52G G68U here?
A: 0.988

Q: For A51G U61C, which self-cleavage is on record?
A: 0.777

Q: For A51C U61G, which self-cleavage is on record?
A: 0.551

Q: For A51C U61C, which self-cleavage is on record?
A: 0.796

Q: With A51C A52U as the variant, how does the self-cleavage read?
A: 0.864

Q: Which self-cleavage does the source give for A51G G56A here?
A: 0.91

Q: For A51G G56C, which self-cleavage is on record?
A: 0.69

Q: With A51G U69C as the variant, how does the self-cleavage read?
A: 1.06

Q: Which self-cleavage does the source give for A52C U64A here?
A: 0.875

Q: Which self-cleavage does the source give for A51C A60C here?
A: 0.477

Q: For U53G C54A, which self-cleavage is on record?
A: 0.873

Q: For G50U G68U, which self-cleavage is on record?
A: 1.02

Q: Which self-cleavage does the source give for A51G A52G here?
A: 0.925

Q: With A52U U61G as the variant, how does the self-cleavage read?
A: 0.741

Q: Which self-cleavage does the source give for G50U A59C here?
A: 0.682

Q: Which self-cleavage does the source give for G50C G58A here?
A: 0.935

Q: For A52G A59C, which self-cleavage is on record?
A: 0.793

Q: For A52G A59U, which self-cleavage is on record?
A: 0.82

Q: Which self-cleavage does the source give for A52G A59G here?
A: 0.98

Q: For G50U C54G, which self-cleavage is on record?
A: 0.781

Q: With G50C U53A as the variant, how does the self-cleavage read?
A: 0.899

Q: For A52G A60U, which self-cleavage is on record?
A: 0.506

Q: Which self-cleavage does the source give for A51C G65U here?
A: 0.729

Q: With G50C G65U as the variant, how does the self-cleavage read?
A: 0.774

Q: For A52G U61A, which self-cleavage is on record?
A: 0.89

Q: Which self-cleavage does the source give for A52G U61G here?
A: 0.861

Q: With U53C G56U as the variant, how does the self-cleavage read?
A: 0.399

Q: For A51U U61C, which self-cleavage is on record?
A: 0.808

Q: With A52U U62C as the variant, how does the self-cleavage read?
A: 0.765

Q: For G50U G58C, which self-cleavage is on record?
A: 0.942

Q: Which self-cleavage does the source give for A51G A59G here?
A: 0.963

Q: Which self-cleavage does the source give for A51G A59C here?
A: 0.747

Q: With A51G A60C as the variant, how does the self-cleavage read?
A: 0.373

Q: With U53G C66U as the variant, how does the self-cleavage read?
A: 0.929

Q: With U53G C66G as the variant, how does the self-cleavage read?
A: 0.647

Q: For U53C U69A, which self-cleavage is on record?
A: 0.977

Q: For U53C C63U, which self-cleavage is on record?
A: 0.786

Q: With A52C C57A as the variant, how does the self-cleavage read?
A: 0.414

Q: For A52C C57U, which self-cleavage is on record?
A: 0.398

Q: For G50U A60C, which self-cleavage is on record?
A: 0.382

Q: For G50U A60G, which self-cleavage is on record?
A: 0.973

Q: Which self-cleavage does the source give for G50C G56C here?
A: 0.456

Q: With U53C C66A as the variant, how does the self-cleavage read?
A: 0.386

Q: Which self-cleavage does the source give for U53C C66U here?
A: 0.801

Q: For A52G C57A, which self-cleavage is on record?
A: 0.343

Q: For A51C U62G, which self-cleavage is on record?
A: 0.778

Q: For U53A C54A, which self-cleavage is on record?
A: 0.907

Q: For U53A C54U, which self-cleavage is on record?
A: 0.882

Q: For G50U C63G, which self-cleavage is on record?
A: 0.844

Q: For A52C A59U, which self-cleavage is on record?
A: 0.68

Q: With U53C G65U as the variant, how does the self-cleavage read?
A: 0.429

Q: Which self-cleavage does the source give for U53C G58U here?
A: 0.965

Q: Which self-cleavage does the source give for A51U U55G here?
A: 0.662

Q: Which self-cleavage does the source give for A52C G56A here?
A: 0.826

Q: For U53A U69C, which self-cleavage is on record?
A: 1.06

Q: Which self-cleavage does the source give for G50U G65C here?
A: 0.73

Q: With G50U G65U as the variant, how does the self-cleavage read?
A: 0.809

Q: With A51C U55G as the variant, how does the self-cleavage read?
A: 0.576

Q: With A51C U55C as the variant, how does the self-cleavage read?
A: 0.678

Q: With A51C U67C as the variant, how does the self-cleavage read?
A: 0.943

Q: For G50C G68A, which self-cleavage is on record?
A: 0.992

Q: For A52U U67A, which self-cleavage is on record?
A: 0.978

Q: With A51U C57A as the variant, how does the self-cleavage read?
A: 0.374

Q: Which self-cleavage does the source give for A52U U64A here?
A: 0.87

Q: Which self-cleavage does the source give for U53C U62C here?
A: 0.513

Q: Which self-cleavage does the source give for G50C U69C here?
A: 1.07

Q: With A52U G68A as the variant, how does the self-cleavage read?
A: 0.975

Q: With A51C C54A as the variant, how does the self-cleavage read?
A: 0.582

Q: For U53G C57G, which self-cleavage is on record?
A: 0.403

Q: For A52U U69A, which self-cleavage is on record?
A: 1.03

Q: For U53A A60C, which self-cleavage is on record?
A: 0.324

Q: With U53A A60G as the variant, how does the self-cleavage read?
A: 0.777

Q: With U53A A60U as the variant, how does the self-cleavage read?
A: 0.35

Q: Which self-cleavage does the source give for G50C C57G here?
A: 0.314

Q: With G50U A51C as the variant, how does the self-cleavage read?
A: 0.938

Q: For A52C G68C, which self-cleavage is on record?
A: 0.978

Q: Which self-cleavage does the source give for A52C G68A here?
A: 0.987

Q: For U53A G56C, which self-cleavage is on record?
A: 0.411

Q: With U53A G56A as the variant, how does the self-cleavage read?
A: 0.736

Q: Which self-cleavage does the source give for A52U G65U here?
A: 0.664

Q: For A52U G65C, which self-cleavage is on record?
A: 0.549

Q: Which self-cleavage does the source give for U53C C54U here?
A: 0.819

Q: For G50C U67A, which self-cleavage is on record?
A: 0.955

Q: With A52C A60G as the variant, how does the self-cleavage read?
A: 0.839

Q: Which self-cleavage does the source give for A52C A60C here?
A: 0.398

Q: With A51G C66G as the variant, how does the self-cleavage read?
A: 0.84

Q: For A51G C66U, which self-cleavage is on record?
A: 0.972

Q: For A51G C66A, which self-cleavage is on record?
A: 0.875

Q: For A52G C66G, which self-cleavage is on record?
A: 0.966

Q: With A51C U53G as the variant, how does the self-cleavage read?
A: 0.703

Q: With A51U G65C as the variant, how does the self-cleavage read?
A: 0.674

Q: Which self-cleavage does the source give for A52C U69A here?
A: 0.977

Q: Which self-cleavage does the source give for A52U C54U here?
A: 0.976

Q: Which self-cleavage does the source give for A51U G58C here?
A: 0.975

Q: For A51U G58A, which self-cleavage is on record?
A: 0.941

Q: For U53G C63A, which self-cleavage is on record?
A: 0.494

Q: Which self-cleavage does the source give for U53G C63U here?
A: 0.849

Q: With U53G C63G as the variant, how does the self-cleavage read?
A: 0.523

Q: For U53A U61G, which self-cleavage is on record?
A: 0.581

Q: Which self-cleavage does the source give for U53G G58A here?
A: 0.818

Q: Which self-cleavage does the source give for A51C C63G here?
A: 0.699

Q: With G50U C66A as the variant, how does the self-cleavage read?
A: 0.824

Q: Which self-cleavage does the source give for G50U C66U here?
A: 1.01

Q: With G50U C66G as the variant, how does the self-cleavage read?
A: 0.923

Q: For A52C G58C, which self-cleavage is on record?
A: 0.986

Q: Which self-cleavage does the source give for A52C G58A here?
A: 0.887

Q: Which self-cleavage does the source give for A52G U55C here?
A: 0.722

Q: For G50C U64A, which self-cleavage is on record?
A: 0.792

Q: With G50U U53C as the variant, how does the self-cleavage read?
A: 0.909

Q: For G50U U53G, which self-cleavage is on record?
A: 0.871

Q: For A52G G65C, which self-cleavage is on record?
A: 0.843

Q: Which self-cleavage does the source give for A52G G65U here?
A: 0.894

Q: With G50U U67G as the variant, how does the self-cleavage read?
A: 1.05

Q: With G50U U67A as the variant, how does the self-cleavage read?
A: 1.04

Q: Which self-cleavage does the source give for A52G G58C here?
A: 0.972

Q: For A52G U53C, which self-cleavage is on record?
A: 0.892

Q: For A52G U53G, which self-cleavage is on record?
A: 0.72

Q: With U53C U61C as the variant, how does the self-cleavage read?
A: 0.342

Q: With U53C U61A as the variant, how does the self-cleavage read?
A: 0.577

Q: For U53A C66A, which self-cleavage is on record?
A: 0.509

Q: For A51G G58A, which self-cleavage is on record?
A: 0.949

Q: For U53C U67C, which self-cleavage is on record?
A: 0.872

Q: For U53C U67A, which self-cleavage is on record?
A: 0.793

Q: For U53C U67G, which self-cleavage is on record?
A: 0.822

Q: For A52C U53G, which self-cleavage is on record?
A: 0.788

Q: With U53A C63A as the variant, how does the self-cleavage read?
A: 0.673

Q: Which self-cleavage does the source give for A52G C54G here?
A: 0.861

Q: With A52U U55A as the variant, how does the self-cleavage read?
A: 0.7

Q: For A52U U55G, which self-cleavage is on record?
A: 0.56

Q: For G50U U55G, which self-cleavage is on record?
A: 0.8

Q: For G50U U55A, which self-cleavage is on record?
A: 0.882

Q: Which self-cleavage does the source give for A51C C57G here?
A: 0.38

Q: Which self-cleavage does the source give for G50U A52G here?
A: 0.976

Q: For U53A U67C, which self-cleavage is on record?
A: 0.975

Q: Which self-cleavage does the source give for A51U C63A here?
A: 0.797

Q: For G50U, which self-cleavage is on record?
A: 0.997

Q: For G50U U62C, which self-cleavage is on record?
A: 0.866

Q: With A52G U67G as the variant, how does the self-cleavage read?
A: 1.02

Q: For A52G U67C, which self-cleavage is on record?
A: 0.944

Q: With A52U G56U as the variant, how does the self-cleavage read?
A: 0.848

Q: Which self-cleavage does the source give for A52U G56A here?
A: 0.909

Q: For G50U G56C, which self-cleavage is on record?
A: 0.649

Q: Which self-cleavage does the source give for A51U A59G here?
A: 0.993

Q: Which self-cleavage does the source give for A52U G58A here?
A: 0.939

Q: With A52U C63U as the variant, how does the self-cleavage read?
A: 0.954

Q: For A51U G56U, which self-cleavage is on record?
A: 0.879

Q: For A51U G56C, which self-cleavage is on record?
A: 0.486

Q: For A51U G56A, which self-cleavage is on record?
A: 0.889

Q: Which self-cleavage does the source give for A52C U62G here?
A: 0.806

Q: Which self-cleavage does the source give for A51C U64G here?
A: 0.841

Q: With U53A C57A as the variant, how does the self-cleavage read?
A: 0.402

Q: For U53A U55C, which self-cleavage is on record?
A: 0.43

Q: With U53A U55G as the variant, how does the self-cleavage read?
A: 0.411

Q: Which self-cleavage does the source give for A51G C57G here?
A: 0.322

Q: Which self-cleavage does the source give for G50U U64C here?
A: 0.947

Q: Which self-cleavage does the source give for G50U U64G here?
A: 0.864
